B1: Speckle-type POZ protein (Homo sapiens), O43791 (parent)
chain: MSRVPSPPPPAEMSSGPVAESWCYTQIKVVKFSYMWTINNFSFCREEMGEVIKSSTFSSGANDKLKWCLRVNPKGLDEESKDYLSLYLLLVSCPKSEVRAKFKFSILNAKGEETKAMESQRAYRFVQGKDWGFKKFIRRDFLLDEANGLLPDDKLTLFCEVSVVQDSVNISGQNTMNMVKVPECRLADELGGLWENSRFTDCCLCVAGQEFQAHKAILAARSPVFSAMFEHEMEESKKNRVEINDVEPEVFKEMMCFIYTGKAPNLDKMADDLLAAADKYALERLKVMCEDALCSNLSVENAAEILILADLHSADQLKTQAVDFINYHASDVLETSGWKSMVVSHPHLVAEAYRSLASAQCPFLGPPRKRLKQS
partner: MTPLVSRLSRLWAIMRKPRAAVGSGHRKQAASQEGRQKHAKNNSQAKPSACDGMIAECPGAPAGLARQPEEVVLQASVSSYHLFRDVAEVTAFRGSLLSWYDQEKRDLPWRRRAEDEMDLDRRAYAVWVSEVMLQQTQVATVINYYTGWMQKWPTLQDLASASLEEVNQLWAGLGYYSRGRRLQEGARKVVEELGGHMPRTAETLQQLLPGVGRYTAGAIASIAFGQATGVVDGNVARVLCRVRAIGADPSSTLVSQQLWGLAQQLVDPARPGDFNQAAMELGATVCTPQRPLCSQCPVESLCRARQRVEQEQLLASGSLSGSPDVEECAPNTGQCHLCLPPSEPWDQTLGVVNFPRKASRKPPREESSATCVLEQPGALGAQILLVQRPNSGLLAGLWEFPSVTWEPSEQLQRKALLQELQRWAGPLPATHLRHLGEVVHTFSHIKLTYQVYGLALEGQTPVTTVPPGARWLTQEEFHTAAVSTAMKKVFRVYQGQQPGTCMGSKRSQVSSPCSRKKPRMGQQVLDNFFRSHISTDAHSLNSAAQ
B2: Speckle-type POZ protein (Homo sapiens), O43791 (parent)
chain: B1 chain
partner: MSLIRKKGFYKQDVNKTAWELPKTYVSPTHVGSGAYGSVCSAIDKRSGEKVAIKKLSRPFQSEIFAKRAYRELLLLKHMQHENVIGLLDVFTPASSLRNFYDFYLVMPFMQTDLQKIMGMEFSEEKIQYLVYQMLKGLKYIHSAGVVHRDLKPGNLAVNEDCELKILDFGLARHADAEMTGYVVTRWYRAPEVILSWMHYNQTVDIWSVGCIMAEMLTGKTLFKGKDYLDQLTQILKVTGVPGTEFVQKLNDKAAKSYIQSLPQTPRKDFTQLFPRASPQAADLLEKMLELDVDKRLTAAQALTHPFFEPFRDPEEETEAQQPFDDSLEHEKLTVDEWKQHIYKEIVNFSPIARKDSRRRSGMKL
B3: Speckle-type POZ protein (Homo sapiens), O43791 (parent)
chain: B1 chain
partner: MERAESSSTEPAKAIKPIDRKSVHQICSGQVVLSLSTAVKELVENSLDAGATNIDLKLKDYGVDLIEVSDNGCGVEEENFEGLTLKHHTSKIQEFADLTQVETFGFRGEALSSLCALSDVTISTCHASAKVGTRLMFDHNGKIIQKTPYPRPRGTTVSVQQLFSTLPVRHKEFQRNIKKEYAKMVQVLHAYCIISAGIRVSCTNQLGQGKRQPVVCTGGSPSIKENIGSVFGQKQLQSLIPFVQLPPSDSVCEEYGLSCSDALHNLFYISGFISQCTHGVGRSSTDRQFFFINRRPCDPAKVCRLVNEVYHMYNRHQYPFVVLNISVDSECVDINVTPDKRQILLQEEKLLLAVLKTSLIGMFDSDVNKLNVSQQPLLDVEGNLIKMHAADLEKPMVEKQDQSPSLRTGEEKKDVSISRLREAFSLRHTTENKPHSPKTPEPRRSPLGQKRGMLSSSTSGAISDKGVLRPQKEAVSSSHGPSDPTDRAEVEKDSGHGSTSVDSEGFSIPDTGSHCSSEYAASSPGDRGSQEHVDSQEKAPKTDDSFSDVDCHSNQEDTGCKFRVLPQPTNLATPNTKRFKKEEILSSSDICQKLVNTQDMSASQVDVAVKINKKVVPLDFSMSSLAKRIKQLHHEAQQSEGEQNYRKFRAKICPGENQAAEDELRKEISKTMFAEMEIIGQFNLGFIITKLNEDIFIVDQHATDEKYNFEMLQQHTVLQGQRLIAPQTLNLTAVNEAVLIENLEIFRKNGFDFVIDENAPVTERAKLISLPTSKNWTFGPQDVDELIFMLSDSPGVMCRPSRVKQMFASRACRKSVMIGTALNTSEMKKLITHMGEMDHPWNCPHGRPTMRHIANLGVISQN
B4: Speckle-type POZ protein (Homo sapiens), O43791 (parent)
chain: B1 chain
partner: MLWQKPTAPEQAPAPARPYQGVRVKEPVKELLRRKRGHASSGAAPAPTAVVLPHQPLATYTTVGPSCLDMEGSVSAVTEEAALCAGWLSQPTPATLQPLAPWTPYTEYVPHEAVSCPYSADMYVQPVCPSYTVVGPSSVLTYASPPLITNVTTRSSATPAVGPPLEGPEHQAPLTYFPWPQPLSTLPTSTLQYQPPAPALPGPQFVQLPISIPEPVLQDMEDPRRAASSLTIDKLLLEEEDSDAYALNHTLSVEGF
B5: Speckle-type POZ protein (Homo sapiens), O43791 (parent)
chain: B1 chain
partner: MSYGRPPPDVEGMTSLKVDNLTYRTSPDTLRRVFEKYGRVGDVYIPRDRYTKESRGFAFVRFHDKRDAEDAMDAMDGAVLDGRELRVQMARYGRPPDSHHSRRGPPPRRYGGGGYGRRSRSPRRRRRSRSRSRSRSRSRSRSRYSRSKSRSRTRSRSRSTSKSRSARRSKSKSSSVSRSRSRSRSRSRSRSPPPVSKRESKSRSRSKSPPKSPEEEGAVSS
B6: Speckle-type POZ protein (Homo sapiens), O43791 (parent)
chain: B1 chain
partner: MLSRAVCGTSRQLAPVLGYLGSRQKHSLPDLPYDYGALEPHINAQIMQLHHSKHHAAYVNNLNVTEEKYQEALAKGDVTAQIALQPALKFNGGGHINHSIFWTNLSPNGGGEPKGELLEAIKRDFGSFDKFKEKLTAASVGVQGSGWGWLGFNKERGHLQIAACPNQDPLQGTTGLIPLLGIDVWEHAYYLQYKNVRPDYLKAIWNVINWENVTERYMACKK
B7: Speckle-type POZ protein (Homo sapiens), O43791 (parent)
chain: B1 chain
partner: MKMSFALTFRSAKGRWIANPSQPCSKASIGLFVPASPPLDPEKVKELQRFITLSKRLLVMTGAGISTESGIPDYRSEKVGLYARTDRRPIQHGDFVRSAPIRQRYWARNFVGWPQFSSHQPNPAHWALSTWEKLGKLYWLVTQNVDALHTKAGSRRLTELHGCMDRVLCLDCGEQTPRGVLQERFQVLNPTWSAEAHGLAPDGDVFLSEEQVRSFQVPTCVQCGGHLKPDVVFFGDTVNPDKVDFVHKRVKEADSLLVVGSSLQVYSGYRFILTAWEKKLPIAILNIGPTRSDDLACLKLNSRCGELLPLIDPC

In one assay the parent is B1. The note with it: with mutyh_human MUTYH.
On to Y87C, for which the “effect of a mutation on the interaction” value is reported as “with no effect”.

In the next assay the parent is B1. As to conditions: with mutyh_human MUTYH. The source holds these as a separate data set.
Take F102C: the “effect of a mutation on the interaction” value was “with no effect”.

Variants of B1 are the subject of another assay. As to conditions: with mutyh_human MUTYH. The source holds these as a separate data set.
For the variant F133L, the “effect of a mutation on the interaction” value is reported as “with no effect”.

The variants in another assay derive from B1. The note with it: with mutyh_human MUTYH. The source holds these as a separate data set.
With F133V, the “effect of a mutation on the interaction” value is reported as “with no effect”.

In the next assay the parent is B2. The note with it: with mk13_human MAPK13, O15264.
Take Y87C: the “effect of a mutation on the interaction” value was “with no effect”.

The variants in the next assay derive from B2. The note with it: with mk13_human MAPK13, O15264. This is another data set of the same source.
Take F102C: the “effect of a mutation on the interaction” value was “with no effect”.

The next assay covers variants of B2. The note with it: with mk13_human MAPK13, O15264. The source holds these as a separate data set.
As to F133L, the “effect of a mutation on the interaction” value is given as “with no effect”.

The next assay covers variants of B2. As to conditions: with mk13_human MAPK13, O15264. The source holds these as a separate data set.
Consider F133V, for which the “effect of a mutation on the interaction” value is listed as “with no effect”.

The variants in another assay derive from B3. As to conditions: with pms2_human PMS2, P54278.
Turning to F102C, the “effect of a mutation on the interaction” value is “with no effect”.

Variants of B3 are the subject of the next assay. The note with it: with pms2_human PMS2, P54278. This is another data set of the same source.
Turning to F133L, the “effect of a mutation on the interaction” value is “with no effect”.

In a further assay the parent is B3. The note with it: with pms2_human PMS2, P54278. This is another data set of the same source.
As for F133V, the “effect of a mutation on the interaction” value is “with no effect”.

Variants of B3 are the subject of another assay. The note with it: with pms2_human PMS2, P54278. This is another data set of the same source.
With Y87C, the “effect of a mutation on the interaction” value is “with no effect”.

In a further assay the parent is B4. The note with it: with obf1_human POU2AF1, Q16633.
As to Y87C, the “effect of a mutation on the interaction” value is reported as “with no effect”.

Another assay covers variants of B4. As to conditions: with obf1_human POU2AF1, Q16633. The source holds these as a separate data set.
For the variant F133L, the “effect of a mutation on the interaction” value is “with no effect”.

In a further assay the parent is B4. As to conditions: with obf1_human POU2AF1, Q16633. The source holds these as a separate data set.
Take F133V: the “effect of a mutation on the interaction” value is listed as “with no effect”.

In the next assay the parent is B4. The note with it: with obf1_human POU2AF1, Q16633. The source holds these as a separate data set.
On to F102C, for which the “effect of a mutation on the interaction” value is on record as “with no effect”.

Variants of B5 are the subject of a further assay. As to conditions: with srsf2_human SRSF2, Q01130.
Take F102C: the “effect of a mutation on the interaction” value is reported as “with no effect”.

A further assay covers variants of B6. As to conditions: with sodm_human SOD2, P04179.
Turning to F102C, the “effect of a mutation on the interaction” value is “with no effect”.

The variants in a further assay derive from B6. As to conditions: with sodm_human SOD2, P04179. The source holds these as a separate data set.
For the variant F133L, the “effect of a mutation on the interaction” value is listed as “with no effect”.

The variants in the next assay derive from B6. The note with it: with sodm_human SOD2, P04179. This is another data set of the same source.
Take F133V: the “effect of a mutation on the interaction” value is “with no effect”.

Variants of B6 are the subject of another assay. As to conditions: with sodm_human SOD2, P04179. The source holds these as a separate data set.
Take Y87C: the “effect of a mutation on the interaction” value is on record as “with no effect”.

Another assay covers variants of B7. The note with it: with sir4_human SIRT4, Q9Y6E7.
Consider F133V, for which the “effect of a mutation on the interaction” value is “with no effect”.

Variants of B7 are the subject of another assay. As to conditions: with sir4_human SIRT4, Q9Y6E7. This is another data set of the same source.
In the case of F133L, the “effect of a mutation on the interaction” value is on record as “with no effect”.

These data come from IntAct's records for PubMed 35512704.
